# Results: patent US20140087995A1 (published 2014)
# Numbered stars: 1 amine (or outer) side, 2 acyl side, 3 side chain; on linkers, the order of the positions; unused ones are H or OH. Bridge positions count the residues as written; N and C are the ends. Side chains are listed from the residue outwards. Ends that are not written are not given here. * marks the point of attachment. C20 diacid = O=C(O)CCCCCCCCCCCCCCCCCCC(=O)*; γGlu = O=C(O)[C@H](CCC(=O)[*:2])N[*:1]; AEEA = NCCOCCOCC(=O)O
# T1: human amylin receptor (human calcitonin receptor co-expressed with RAMP-3; amylin 3(a) receptor) (human, UniProt P30988 25-474; O60896 24-148, limits assumed)
# T1 construct: whole, on cells; Used as cell membranes prepared from Amylin 3(a)/CRE-luc BHK cells (Assay V), not as intact cells; also called hAmylin-R; hAmylinR
# T1 sequence (looked up) 1: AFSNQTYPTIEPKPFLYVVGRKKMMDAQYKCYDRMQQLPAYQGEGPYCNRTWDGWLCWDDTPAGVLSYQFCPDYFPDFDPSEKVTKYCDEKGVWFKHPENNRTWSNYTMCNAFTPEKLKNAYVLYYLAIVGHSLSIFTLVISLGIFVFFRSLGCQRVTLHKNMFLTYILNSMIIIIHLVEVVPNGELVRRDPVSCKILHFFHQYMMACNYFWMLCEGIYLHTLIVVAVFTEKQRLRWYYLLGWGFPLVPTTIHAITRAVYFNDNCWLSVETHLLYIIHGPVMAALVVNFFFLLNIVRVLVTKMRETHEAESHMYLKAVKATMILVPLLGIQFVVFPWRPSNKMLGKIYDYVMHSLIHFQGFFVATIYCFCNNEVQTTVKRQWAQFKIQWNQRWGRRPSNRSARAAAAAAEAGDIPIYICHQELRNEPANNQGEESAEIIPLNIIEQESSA
# T1 sequence (looked up) 2: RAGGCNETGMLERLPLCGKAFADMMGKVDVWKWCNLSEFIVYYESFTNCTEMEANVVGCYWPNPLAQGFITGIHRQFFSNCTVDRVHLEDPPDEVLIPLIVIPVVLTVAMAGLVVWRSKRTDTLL
# T2: human calcitonin receptor (human, UniProt P30988 25-474)
# T2 construct: whole, on cells; Used as cell membranes prepared from the transfected BHK cells (Assay VII), not as intact cells; also called hCTR; hCT
# T2 sequence (looked up): T1 sequence (looked up) 1
# B1: N^ε1-[2-[2-[2-[[(4S)-4-carboxy-4-(19-carboxynonadecanoylamino)butanoyl]amino]ethoxy]ethoxy]acetyl]-[Arg17,Pro21,Pro27,Pro31,His35]-h-amylin (peptide)
# peptide: K([AEEA-γGlu-C20 diacid])CNTATCATQRLANFLRHSSPNFGAIPSSTPVGSHTY-NH2
# modifications: disulfide 2-7; N-terminus assumed
# SMILES: CC[C@H](C)[C@H](NC(=O)[C@H](C)NC(=O)CNC(=O)[C@H](Cc1ccccc1)NC(=O)[C@H](CC(N)=O)NC(=O)[C@@H]1CCCN1C(=O)[C@H](CO)NC(=O)[C@H](CO)NC(=O)[C@H](Cc1c[nH]cn1)NC(=O)[C@H](CCCNC(=N)N)NC(=O)[C@H](CC(C)C)NC(=O)[C@H](Cc1ccccc1)NC(=O)[C@H](CC(N)=O)NC(=O)[C@H](C)NC(=O)[C@H](CC(C)C)NC(=O)[C@H](CCCNC(=N)N)NC(=O)[C@H](CCC(N)=O)NC(=O)[C@@H](NC(=O)[C@H](C)NC(=O)[C@@H]1CSSC[C@H](NC(=O)[C@@H](N)CCCCNC(=O)COCCOCCNC(=O)CC[C@H](NC(=O)CCCCCCCCCCCCCCCCCCC(=O)O)C(=O)O)C(=O)N[C@@H](CC(N)=O)C(=O)N[C@@H]([C@@H](C)O)C(=O)N[C@@H](C)C(=O)N[C@@H]([C@@H](C)O)C(=O)N1)[C@@H](C)O)C(=O)N1CCC[C@H]1C(=O)N[C@@H](CO)C(=O)N[C@@H](CO)C(=O)N[C@H](C(=O)N1CCC[C@H]1C(=O)N[C@H](C(=O)NCC(=O)N[C@@H](CO)C(=O)N[C@@H](Cc1c[nH]cn1)C(=O)N[C@H](C(=O)N[C@@H](Cc1ccc(O)cc1)C(N)=O)[C@@H](C)O)C(C)C)[C@@H](C)O
# notes: also called compound 57
# B2: N^ε1-[2-[2-[2-[[(4S)-4-carboxy-4-(19-carboxynonadecanoylamino)butanoyl]amino]ethoxy]ethoxy]acetyl]-[Arg17,Pro21,Pro27,Pro34]-h-amylin (peptide)
# peptide: K([AEEA-γGlu-C20 diacid])CNTATCATQRLANFLRHSSPNFGAIPSSTNVGPNTY-NH2
# modifications: disulfide 2-7; N-terminus assumed
# SMILES: CC[C@H](C)[C@H](NC(=O)[C@H](C)NC(=O)CNC(=O)[C@H](Cc1ccccc1)NC(=O)[C@H](CC(N)=O)NC(=O)[C@@H]1CCCN1C(=O)[C@H](CO)NC(=O)[C@H](CO)NC(=O)[C@H](Cc1c[nH]cn1)NC(=O)[C@H](CCCNC(=N)N)NC(=O)[C@H](CC(C)C)NC(=O)[C@H](Cc1ccccc1)NC(=O)[C@H](CC(N)=O)NC(=O)[C@H](C)NC(=O)[C@H](CC(C)C)NC(=O)[C@H](CCCNC(=N)N)NC(=O)[C@H](CCC(N)=O)NC(=O)[C@@H](NC(=O)[C@H](C)NC(=O)[C@@H]1CSSC[C@H](NC(=O)[C@@H](N)CCCCNC(=O)COCCOCCNC(=O)CC[C@H](NC(=O)CCCCCCCCCCCCCCCCCCC(=O)O)C(=O)O)C(=O)N[C@@H](CC(N)=O)C(=O)N[C@@H]([C@@H](C)O)C(=O)N[C@@H](C)C(=O)N[C@@H]([C@@H](C)O)C(=O)N1)[C@@H](C)O)C(=O)N1CCC[C@H]1C(=O)N[C@@H](CO)C(=O)N[C@@H](CO)C(=O)N[C@H](C(=O)N[C@@H](CC(N)=O)C(=O)N[C@H](C(=O)NCC(=O)N1CCC[C@H]1C(=O)N[C@@H](CC(N)=O)C(=O)N[C@H](C(=O)N[C@@H](Cc1ccc(O)cc1)C(N)=O)[C@@H](C)O)C(C)C)[C@@H](C)O
# notes: also called compound 50
# B3: N^ε1-[2-[2-[2-[[(4S)-4-carboxy-4-(19-carboxynonadecanoylamino)butanoyl]amino]ethoxy]ethoxy]acetyl]-[His14,Arg17,Pro21,Pro27,Pro34]-h-amylin (peptide)
# peptide: K([AEEA-γGlu-C20 diacid])CNTATCATQRLAHFLRHSSPNFGAIPSSTNVGPNTY-NH2
# modifications: disulfide 2-7; N-terminus assumed
# SMILES: CC[C@H](C)[C@H](NC(=O)[C@H](C)NC(=O)CNC(=O)[C@H](Cc1ccccc1)NC(=O)[C@H](CC(N)=O)NC(=O)[C@@H]1CCCN1C(=O)[C@H](CO)NC(=O)[C@H](CO)NC(=O)[C@H](Cc1c[nH]cn1)NC(=O)[C@H](CCCNC(=N)N)NC(=O)[C@H](CC(C)C)NC(=O)[C@H](Cc1ccccc1)NC(=O)[C@H](Cc1c[nH]cn1)NC(=O)[C@H](C)NC(=O)[C@H](CC(C)C)NC(=O)[C@H](CCCNC(=N)N)NC(=O)[C@H](CCC(N)=O)NC(=O)[C@@H](NC(=O)[C@H](C)NC(=O)[C@@H]1CSSC[C@H](NC(=O)[C@@H](N)CCCCNC(=O)COCCOCCNC(=O)CC[C@H](NC(=O)CCCCCCCCCCCCCCCCCCC(=O)O)C(=O)O)C(=O)N[C@@H](CC(N)=O)C(=O)N[C@@H]([C@@H](C)O)C(=O)N[C@@H](C)C(=O)N[C@@H]([C@@H](C)O)C(=O)N1)[C@@H](C)O)C(=O)N1CCC[C@H]1C(=O)N[C@@H](CO)C(=O)N[C@@H](CO)C(=O)N[C@H](C(=O)N[C@@H](CC(N)=O)C(=O)N[C@H](C(=O)NCC(=O)N1CCC[C@H]1C(=O)N[C@@H](CC(N)=O)C(=O)N[C@H](C(=O)N[C@@H](Cc1ccc(O)cc1)C(N)=O)[C@@H](C)O)C(C)C)[C@@H](C)O
# notes: also called compound 68
# B4: N^ε1-[2-[2-[2-[[(4S)-4-carboxy-4-(19-carboxynonadecanoylamino)butanoyl]amino]ethoxy]ethoxy]acetyl]-[His14,Arg17,Pro21,Pro27,Pro31]-h-amylin (peptide)
# peptide: K([AEEA-γGlu-C20 diacid])CNTATCATQRLAHFLRHSSPNFGAIPSSTPVGSNTY-NH2
# modifications: disulfide 2-7; N-terminus assumed
# SMILES: CC[C@H](C)[C@H](NC(=O)[C@H](C)NC(=O)CNC(=O)[C@H](Cc1ccccc1)NC(=O)[C@H](CC(N)=O)NC(=O)[C@@H]1CCCN1C(=O)[C@H](CO)NC(=O)[C@H](CO)NC(=O)[C@H](Cc1c[nH]cn1)NC(=O)[C@H](CCCNC(=N)N)NC(=O)[C@H](CC(C)C)NC(=O)[C@H](Cc1ccccc1)NC(=O)[C@H](Cc1c[nH]cn1)NC(=O)[C@H](C)NC(=O)[C@H](CC(C)C)NC(=O)[C@H](CCCNC(=N)N)NC(=O)[C@H](CCC(N)=O)NC(=O)[C@@H](NC(=O)[C@H](C)NC(=O)[C@@H]1CSSC[C@H](NC(=O)[C@@H](N)CCCCNC(=O)COCCOCCNC(=O)CC[C@H](NC(=O)CCCCCCCCCCCCCCCCCCC(=O)O)C(=O)O)C(=O)N[C@@H](CC(N)=O)C(=O)N[C@@H]([C@@H](C)O)C(=O)N[C@@H](C)C(=O)N[C@@H]([C@@H](C)O)C(=O)N1)[C@@H](C)O)C(=O)N1CCC[C@H]1C(=O)N[C@@H](CO)C(=O)N[C@@H](CO)C(=O)N[C@H](C(=O)N1CCC[C@H]1C(=O)N[C@H](C(=O)NCC(=O)N[C@@H](CO)C(=O)N[C@@H](CC(N)=O)C(=O)N[C@H](C(=O)N[C@@H](Cc1ccc(O)cc1)C(N)=O)[C@@H](C)O)C(C)C)[C@@H](C)O
# notes: also called compound 61
# B5: N^ε1-[2-[2-[2-[[(4S)-4-carboxy-4-(19-carboxynonadecanoylamino)butanoyl]amino]ethoxy]ethoxy]acetyl]-[Arg17,Pro21,Pro27,Pro34,His35]-h-amylin (peptide)
# peptide: K([AEEA-γGlu-C20 diacid])CNTATCATQRLANFLRHSSPNFGAIPSSTNVGPHTY-NH2
# modifications: disulfide 2-7; N-terminus assumed
# SMILES: CC[C@H](C)[C@H](NC(=O)[C@H](C)NC(=O)CNC(=O)[C@H](Cc1ccccc1)NC(=O)[C@H](CC(N)=O)NC(=O)[C@@H]1CCCN1C(=O)[C@H](CO)NC(=O)[C@H](CO)NC(=O)[C@H](Cc1c[nH]cn1)NC(=O)[C@H](CCCNC(=N)N)NC(=O)[C@H](CC(C)C)NC(=O)[C@H](Cc1ccccc1)NC(=O)[C@H](CC(N)=O)NC(=O)[C@H](C)NC(=O)[C@H](CC(C)C)NC(=O)[C@H](CCCNC(=N)N)NC(=O)[C@H](CCC(N)=O)NC(=O)[C@@H](NC(=O)[C@H](C)NC(=O)[C@@H]1CSSC[C@H](NC(=O)[C@@H](N)CCCCNC(=O)COCCOCCNC(=O)CC[C@H](NC(=O)CCCCCCCCCCCCCCCCCCC(=O)O)C(=O)O)C(=O)N[C@@H](CC(N)=O)C(=O)N[C@@H]([C@@H](C)O)C(=O)N[C@@H](C)C(=O)N[C@@H]([C@@H](C)O)C(=O)N1)[C@@H](C)O)C(=O)N1CCC[C@H]1C(=O)N[C@@H](CO)C(=O)N[C@@H](CO)C(=O)N[C@H](C(=O)N[C@@H](CC(N)=O)C(=O)N[C@H](C(=O)NCC(=O)N1CCC[C@H]1C(=O)N[C@@H](Cc1c[nH]cn1)C(=O)N[C@H](C(=O)N[C@@H](Cc1ccc(O)cc1)C(N)=O)[C@@H](C)O)C(C)C)[C@@H](C)O
# notes: also called compound 58
# Target: T1, human amylin receptor (human calcitonin …)
# Assay: ratio of hCTR binding IC50 to hAmylin-R binding IC50 (reference: human calcitonin receptor)
# Procedure: The resulting pellet was resuspended, homogenized and centrifuged (20.000 rpm, 15 min) in a buffer containing 20 mM Na-HEPES and 0.1 mM EDTA (pH 7.4, buffer 2). The resulting pellet was resuspended in buffer 2 and protein concentration was measured (BCA protein Assay, Pierce). The homogenate was kept cold during the whole procedure. The membranes were kept at −80° C. until use. The assay was performed in a 384 well Optiplate (PerkinElmer) in a total volume of 40 ul. Membranes were mixed with SPA beads. Final concentration of membranes 35 ng/μL final and SPA beads was 0.05 mg/well. Test-compounds were dissolved in DMSO and further diluted in assay buffer (50 mM Hepes, pH 7.4, 1 mM CaCl2, 5 mM MgCl₂, 0.1% OA and 0.02% Tween20). […] The final mixture was incubated with shaking at 400 rpm for 120 min at 25° C. prior to centrifugation (1500 rpm, 10 min). Samples were analyzed on TopCounter™ (Packard). The IC₅₀ was calculated using (one site binding competition analysis) GraphPad Prism5 as a measure of receptor affinity.
# Membranes were prepared in the following way; the cells were rinsed with PBS and incubated with Versene for approximately 5 min before harvesting. The cells were flushed with PBS and the cell-suspension was centrifuged for 5 min at 1000 rpm. Cells were homogenized (Ultrathurrax) in a buffer containing 20 mM Na-HEPES and 10 mM EDTA (pH 7.4) and centrifuged at 20.000 rpm for 15 min. The resulting pellet was resuspended, homogenized and centrifuged (20.000 rpm, 15 min) in a buffer containing 20 mM Na-HEPES and 0.1 mM EDTA (pH 7.4, buffer 2). The resulting pellet was resuspended in buffer 2 and protein concentration was measured (BCA protein Assay, Pierce). The homogenate was kept cold during the whole procedure. The membranes were kept at −80° C. until use. Assay was performed in a 384 well Optiplate (PerkinElmer) in a total volume of 40 ul. Membranes were mixed with SPA beads.
row,Ratio hCT/hAmylin binding,Binder
1,133,B1
2,36,B2
3,64.4,B3
4,66.7,B4
5,109,B5

# Target: T2, human calcitonin receptor
# Assay: SPA competition against 125I-calcitonin, membranes with human calcitonin receptor (Assay VII)
# Summary of the method: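 BHK hCTR membranes 35 ng/μL + SPA beads 0.05 mg/well; buffer 50 mM Hepes pH 7.4, 1 mM CaCl2, 5 mM MgCl₂, 0.1% OA, 0.02% Tween20. 120 min, 25° C., shaking. Scintillation count; IC50 by one-site binding competition.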
row,IC50 [nM],Binder
1,15.3,B1
2,1.38,B2
3,5.66,B3
4,8.11,B4
5,9.63,B5
